Laboratory results: US20190010227A1 (WELSON PHARMACEUTICALS, published 2019)

Legend:
[1] = target: T1, EGFR on A431 cell surface (human, UniProt P00533 25-1210); assay: cell-based ELISA on A431 cells, HRP-conjugated goat anti-mouse IgG, TMB, OD450
T1 construct: whole, on cells; also called EGFR expressed on A431 cell surface; EGFR on live A431 cell surface
Description: (§1) 3. Cell ELISA assay A431 cells were seeded at 20,000 cells/well of 96-well plate in DMEM-10% FBS and incubated at 37° C. 5% CO₂. 24 hours later, discard the medium. After two washes with PBS and blocking with 5% skim-milk/PBS for 1 h, wells were incubated with different concentration of mLA22 and hLA22 in 5% skim-milk-PBS for another one hour. After two washes with PBS, wells were then incubated with HRP-conjugated goat anti-mouse IgG secondary antibodies or HRP-conjugated goat anti-human IgG secondary antibodies (Jackson Lab) in 5% skim-milk-PBS for 1 h at room temperature. After washes with PBS, HRP substrate 3, 3′, 5, 5′-tetramethylbenzidine (TMB) solution was added. The reaction was stopped with stop solution (0.1M […]) and absorbance was measured at 450 nm with a microplate reader.

ECD of rec. EGFR = target: T2, ECD of rec. EGFR (human, UniProt P00533 25-645); assay: SPR (BIAcore), chip coated with ECD of rec. EGFR
T2 construct: extracellular domain; also called human epidermal factor receptor (EGFR)
Source text: 1. Biacore assay. To test the affinity between human epidermal factor receptor (EGFR) and the present invention of humanized anti-EGFR antibody using BIAcore system which is based on the surface plasmon resonance technique, the chip was coated with ECD of rec. EGFR.

[2] = target: T1, EGFR on A431 cell surface; assay: cell-based ELISA on A431 cells, HRP-conjugated goat anti-human IgG, TMB, OD450
Description: as §1

Binder	EC50 (read off the curve) [1]	Kd (ECD of rec. EGFR)	koff (ECD of rec. EGFR)	kon (ECD of rec. EGFR)	EC50 (read off the curve) [2]
Humanized LA22 (H1 + h2) (antibody, human IgG1, V domains shown, Human IgG1 / kappa constant regions; also called H1-LA22 / h2-LA22) VH: EVQLVESGGGLVQPGGSLRLSCESNEYEFPSHDMSWVRQAPGKGLEWVSAITSDGISTYYPDTMERRFTISRDNSKNTLYLQMNSLRAEDTAVYYCARHDWDEGFASWGQGTLVTVSS VL: DVVMTQSPLSLPVTLGQPASISCRSSQSLVHSNGNTYLHWYQQRPGQSPRLLIYKVSNRFSGVPDRFSGSGSGTDFTLKISRVEAEDVGIYFCSQSSHVPPAFGGGTKLEIK		14 nM	0.000146 s⁻¹	10400 M⁻¹ s⁻¹	
Humanized LA22 (H2 + h2) (antibody, human IgG1, V domains shown, Human IgG1 / kappa constant regions; also called H2-LA22 / h2-LA22) VH: EVQLVESGGGLVQPGGSLRLSCESNEYEFPSHDMSWVRQAPGKGLEWVSAITSDGISTYYPDTMERRFTISRDNTKKTLYLQMNSLRAEDTAVYYCARHDWDEGFASWGQGTLVTVSS VL: DVVMTQSPLSLPVTLGQPASISCRSSQSLVHSNGNTYLHWYQQRPGQSPRLLIYKVSNRFSGVPDRFSGSGSGTDFTLKISRVEAEDVGIYFCSQSSHVPPAFGGGTKLEIK		12 nM	7.7e-05 s⁻¹	6400 M⁻¹ s⁻¹	
Humanized LA22 (H0 + h2) (antibody, human IgG1, V domains shown, Human IgG1 / kappa constant regions; also called HO-LA22 / h2-LA22) VH: EVQLVESGGGLVQPGGSLRLSCAASEYEFPSHDMSWVRQAPGKGLEWVSAITSDGISTYYPDTMERRFTISRDNSKNTLYLQMNSLRAEDTAVYYCARHDWDEGFASWGQGTLVTVSS VL: DVVMTQSPLSLPVTLGQPASISCRSSQSLVHSNGNTYLHWYQQRPGQSPRLLIYKVSNRFSGVPDRFSGSGSGTDFTLKISRVEAEDVGIYFCSQSSHVPPAFGGGTKLEIK		13.2 nM	6.9e-05 s⁻¹	5200 M⁻¹ s⁻¹	
Humanized LA22 (H3 + h2) (antibody, V domains shown, also called hLA22; hLA22 h2H3) VH: EVQLVESGGGLVQPGGSLRLSCASNEYEFPSHDMSWVRQTPGKGLEWVSAITSDGISTYYPDTMERRFTISRDNSKNTLYLQMSSLRAEDTAVYYCARHDWDEGFASWGQGTLVTVSS VL: DVVMTQSPLSLPVTLGQPASISCRSSQSLVHSNGNTYLHWYQQRPGQSPRLLIYKVSNRFSGVPDRFSGSGSGTDFTLKISRVEAEDVGIYFCSQSSHVPPAFGGGTKLEIK		2.3 nM	3.8e-05 s⁻¹	16400 M⁻¹ s⁻¹	~1 µg/mL

Results, then the binder that gave them:

EC50 (read off the curve) [1]	Kd (ECD of rec. EGFR)	koff (ECD of rec. EGFR)	kon (ECD of rec. EGFR)	EC50 (read off the curve) [2]	Binder
~1 µg/mL	2 nM	4.3e-05 s⁻¹	22000 M⁻¹ s⁻¹		Mouse monoclonal antibody LA22 (antibody, V domains shown, Mouse hybridoma antibody (ATCC deposit, US 5,459,061); the mouse constant regions are not; also called mLA22; mouse LA22) VH: EVQLVESGGGLVQPGESLKLSCESNEYEFPSHDMSWVRKTPEERLELVAAITSDGISTYYPDTMERRFLISRDNTKKTLYLQMSSLRSEDTALYYCSRHDWDEGFASWGQGTLVTVSA VL: DVVMTQTPLSLPVSLGDQASISCRSSQSLVHSNGNTYLHWYLQKPGQSPKLLIYKVSNRFSGVPDRFSGSGSGTDFTLKISRVEAEDLGIYFCSQSSHVPPAFGGGTKLEIK
	15.4 nM	0.000188 s⁻¹	12200 M⁻¹ s⁻¹		Humanized LA22 (H4 + h2) (antibody, human IgG1, V domains shown, Human IgG1 / kappa constant regions; also called H4-LA22 / h2-LA22) VH: EVQLVESGGGLVQPGGSLRLSCASNEYEFPSHDMSWVRQTPGKRLEWVSAITSDGISTYYPDTMERRFTISRDNSKNTLYLQMSSLRAEDTAVYYCARHDWDEGFASWGQGTLVTVSS VL: DVVMTQSPLSLPVTLGQPASISCRSSQSLVHSNGNTYLHWYQQRPGQSPRLLIYKVSNRFSGVPDRFSGSGSGTDFTLKISRVEAEDVGIYFCSQSSHVPPAFGGGTKLEIK
